From US12447133B2, “Composition and device for preventing hypoglycemia and use thereof” (THE GOVERNING COUNCIL OF THE UNIVERSITY OF TORONTO, priority 2018, dated 2025) come the findings set out here.

Data set [1] has as its system STZ-induced type 1 diabetic male Sprague Dawley rats. In words: Antidiabetic effect of S.C. microgel injection in type 1 diabetic rats. It is filed as in vivo, rat. How it is done:
Male Sprague Dawley rats (Charles River) were treated with 65 mg/kg streptozotocin (STZ) to induce type 1 diabetes. The rats receiving STZ were carefully monitored for 1 week during which time the blood sugar was measured in 2 day intervals using a glucose meter (OneTouch® Ultra®, LifeScan, Inc., USA). Diabetic rats with blood sugar stabilized above 17 mmol/L were selected for the study. All rats were fasted for 4 hours prior to the experiment to eliminate the possible confounding effect of food (BERNICE […], 1965). The blood glucose levels of the diabetic rats were monitored every 15 minutes throughout the experiment. […] The blood glucose levels were measured every 15 min after injection and stopped whenever they were above/bellow euglycemia threshold.

A short description of data set [2]: Stability of released glucagon (far-UV CD and RP-HPLC). It is filed as physicochemical. How it is done:
The effect of glucose concentration on microgel size was characterized using dynamic light scattering (DLS, Malvern Zetasizer Nano-ZS). Adjustment of pH was made using NaOH or HCl. Dimensions and surface morphology of freeze-dried microgels were examined by scanning electron microscopy (SEM/EDX) at an acceleration voltage of 20 kV. Transmission electron microscopy (TEM) images were performed on a Hitachi H-7500 transmission electron microscope operated at 80 kV. In addition, Rhodamine-B (Rh-B) labelling was applied to track the distribution of microgels within the microneedle array. The microgels were first immersed in 10 μg/mL of Rh-B for 12 hours at room temperature and then washed with DI-water three times. […] Glucagon and its degradation products were assayed using a reversed-phase high-performance liquid chromatography (RP-HPLC) system (Waters, MA, USA) equipped with a binary pump, autosampler, and UV detector (2899 Photodiode Detector Array, Waters, MA, USA). ^1H-NMR, and ^11B-NMR spectra were recorded in dimethyl sulfoxide (DMSO) and deuterium oxide (D2O) with a Bruker AM 400 spectrometer (400 MHz). […] Glucagon released from microgels or MNs were collected and measured using a CD spectropolarimeter (Jasco J-810, MD, USA) equipped with a Peltier temperature module set to 25° C. […]

A value given as a limit tells only on which side of the number the result lay.

On to insulin, for which the “time after which blood glucose increased back to hyperglycemia” value in data set [1] (0.5 IU/kg insulin S.C.) came out at 3 h. In data set [1] (1 IU/kg insulin S.C.), the occurrence of hypoglycemia result is given as “fell even further below the hypoglycemic threshold” and the “time to reach euglycemia post-injection” value is not above 45 min.
glucagon: the “secondary structure of released glucagon (far-UV CD, peaks at 208 and 222 nm)” value in data set [2] (released at 50 mg/dL glucose, compared to fresh native glucagon) was “preserved”. Besides, the “degradation products of released glucagon (RP-HPLC)” value in data set [2] (released from composite patch, compared to fresh glucagon) is on record as “no detectable degradants”.
